This note sets out measurements from US20210198369A1 (DRAGONFLY THERAPEUTICS, published 2021).

By Kd is commonly meant a measure of binding affinity in units of concentration. One may read the EC50 (read off the curve) as the concentration that produces a half-maximal response. The low end stands for an effect from little substance, the high end for a need for much substance.

The target of assay [1] is T1, fusion protein of human NKG2D and murine Fc (human, UniProt P26718 78-216).
T1 construct: also called mFc-hNKG2D; not shown: murine Fc
T1 sequence (looked up): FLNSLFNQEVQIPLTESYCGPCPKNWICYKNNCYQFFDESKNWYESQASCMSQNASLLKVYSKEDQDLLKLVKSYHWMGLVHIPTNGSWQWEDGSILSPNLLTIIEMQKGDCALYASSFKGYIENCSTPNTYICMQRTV
Kind of assay: SPR at 37 C, mFc-hNKG2D captured, TriNKET as analyte, steady state affinity fit; reference TriNKET A. An excerpt: (§1) Steady state affinity fit was utilized to obtain the equilibrium affinity data.

Assay [2] has as its target T1, fusion protein of human NKG2D and …. In words: SPR at 37 C, steady state affinity fit, average of two independent experiments.
Text: as §1

For assay [3] the target is unchanged. Kind of assay: SPR at 37 C, mFc-hNKG2D captured, TriNKET as analyte, steady state affinity fit.
Text: as §1

The target of assay [4] is T2, HER2 (ErbB2) expressed on human cells (SkBr-3, NCI-H661, 786-O cancer cells; human cardiomyocytes) (human, UniProt P04626 23-1255). Kind of assay: cell-based or functional assay.
Assay [5] addresses T2, HER2 (ErbB2) expressed on human cells …. Kind of assay: flow cytometry on SKBR3 cells, anti-human IgG secondary, fold over background (control TriNKET). The procedure: (§2) TriNKETs were diluted to 3.8e-4 to 100 μg/mL, and the dilutions were used as primary antibody stain. Binding of the TriNKET was detected using a fluorophore-conjugated anti-human IgG secondary antibody. Cells were analyzed by flow cytometry. Binding fluorescence intensity (MFI) to cells expressing HER2 was normalized to cells stained with a control (non-specific) TriNKET to obtain fold over background (FOB) values.
On the technique in general: Flow cytometry measures light scatter and fluorescence of single cells or particles in a stream.

Assay [6] has as its target T1, fusion protein of human NKG2D and …. Kind of assay: SPR at 37 C, steady state affinity fit, average of three independent experiments.
Text: as §1

Assay [7] concerns the target T2, HER2 (ErbB2) expressed on human cells …. Kind of assay: flow cytometry on H661 cells, anti-human IgG secondary, fold over background (control TriNKET). As to the method: as §2
The target is the same in assay [8]. Kind of assay: flow cytometry on human cardiomyocytes, anti-human IgG secondary, fold over background (control TriNKET). The procedure: as §2
Assay [9] has the same target. In words: flow cytometry on SkBr-3 cells, anti-human IgG secondary, fold over background (secondary only). The procedure: (§3) All three cell lines were used to assess their binding affinity to TriNKET. TriNKETs were diluted in a series of concentrations, and were incubated with the respective cells.
The target is the same in assay [10]. Kind of assay: flow cytometry on SkBr-3 cells, anti-human IgG secondary, % of maximum MFI. As to the method:
as §3

Residue numbers refer to the chain shown, from its start. Values joined by “and” are separate entries in the source; they are usually repeats but may differ in a detail not shown here. Equal entries are not always repeated.

B1: TriNKET A* (mutant form of TriNKET A having a substitution of Ile for the Met at position 102) (bispecific antibody, human IgG1)
heavy: EVQLVESGGGLVKPGGSLRLSCAASGFTFSSYSMNWVRQAPGKGLEWVSSISSSSSYIYYADSVKGRFTISRDNAKNSLYLQMNSLRAEDTAVYYCARGAPIGAAAGWFDPWGQGTLVTVSSASTKGPSVFPLAPSSKSTSGGTAALGCLVKDYFPEPVTVSWNSGALTSGVHTFPAVLQSSGLYSLSSVVTVPSSSLGTQTYICNVNHKPSNTKVDKKVEPKSCDKTHTCPPCPAPELLGGPSVFLFPPKPKDTLMISRTPEVTCVVVDVSHEDPEVKFNWYVDGVEVHNAKTKPREEQYNSTYRVVSVLTVLHQDWLNGKEYKCKVSNKALPAPIEKTISKAKGQPREPQVCTLPPSRDELTENQVSLTCLVKGFYPSDIAVEWESNGQPENNYKTTPPVLDSDGSFFLYSWLTVDKSRWQQGNVFSCSVMHEALHNHYTQKSLSLSPG
scFv: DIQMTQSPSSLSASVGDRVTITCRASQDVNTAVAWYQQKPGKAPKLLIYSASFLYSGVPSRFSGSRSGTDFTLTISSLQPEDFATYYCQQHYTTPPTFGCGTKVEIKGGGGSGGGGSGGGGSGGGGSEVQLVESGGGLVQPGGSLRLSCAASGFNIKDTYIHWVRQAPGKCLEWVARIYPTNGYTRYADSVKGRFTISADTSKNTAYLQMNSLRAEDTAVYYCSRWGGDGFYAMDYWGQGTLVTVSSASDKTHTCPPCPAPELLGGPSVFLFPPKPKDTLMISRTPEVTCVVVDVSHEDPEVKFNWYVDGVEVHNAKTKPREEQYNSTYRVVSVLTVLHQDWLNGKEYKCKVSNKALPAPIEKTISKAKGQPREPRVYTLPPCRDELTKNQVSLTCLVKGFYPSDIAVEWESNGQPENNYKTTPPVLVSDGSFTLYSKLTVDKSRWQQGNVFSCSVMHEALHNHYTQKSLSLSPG
light: DIQMTQSPSSVSASVGDRVTITCRASQGISSWLAWYQQKPGKAPKLLIYAASSLQSGVPSRFSGSGSGTDFTLTISSLQPEDFATYYCQQGVSFPRTFGGGTKVEIKRTVAAPSPPSDEQLKSGTASVVCLLNNFYPREAKVQWKVDNALQSGNSQESVTEQDSKDSTYSLSSTLTLSKADYEKHKVYACEVTHQGLSSPVTKSFNRGEC
notes: also called M102 variant
Take B1: the “fold reduced affinity compared to TriNKET A” value in assay [1] was less than 2 fold. In addition, the Kd is 481 nM in assay [2]; 509 nM and 454 nM in [3]. The “EC50 (nM), % specific lysis of SKBR-3 target cells by KHYG-1-CD16V cells (DELFIA)” value in assay [4] was determined as 0.65 nM.

B2: A49-F3'-TriNKET-Trastuzumab (bispecific antibody, human IgG1)
heavy: B1 heavy with I102M
scFv: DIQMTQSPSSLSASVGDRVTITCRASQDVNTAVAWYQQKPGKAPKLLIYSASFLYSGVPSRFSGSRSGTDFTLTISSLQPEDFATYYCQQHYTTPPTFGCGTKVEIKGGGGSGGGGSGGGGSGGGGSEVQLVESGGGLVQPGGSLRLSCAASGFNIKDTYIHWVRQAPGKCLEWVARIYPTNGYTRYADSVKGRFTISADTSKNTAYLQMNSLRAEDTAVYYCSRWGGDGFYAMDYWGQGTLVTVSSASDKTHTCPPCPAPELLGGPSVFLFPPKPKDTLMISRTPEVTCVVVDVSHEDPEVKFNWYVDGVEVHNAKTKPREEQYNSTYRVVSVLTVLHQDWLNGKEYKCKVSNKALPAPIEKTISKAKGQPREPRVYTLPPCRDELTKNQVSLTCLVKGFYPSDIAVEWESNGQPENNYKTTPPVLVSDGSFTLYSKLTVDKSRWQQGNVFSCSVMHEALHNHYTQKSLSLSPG
light: B1 light
notes: also called TriNKET A; HER2-F3'-TriNKET-A49
As to B2, the concentration giving a half-maximal response (EC50 (read off the curve)) is roughly 0.3 µg/mL in assay [5]; roughly 0.3 µg/mL in [7]; roughly 0.4 µg/mL in [8]; roughly 10 nM in assay [9]; roughly 10 nM in [10]. Besides, the Kd in assay [6] is 337 nM; in assay [3] it was 370 nM and 328 nM and 313 nM. Moreover, the “EC50 (nM), % specific lysis of SKBR-3 target cells by KHYG-1-CD16V cells (DELFIA)” value in [4] is 0.39 nM.
